2 molecules from US20130041138A1, “ANTIBODIES THAT BIND TO PSCA PROTEINS FOR DIAGNOSIS OF CANCER” (priority 2003, published 2013) can be followed below.

Test [1] addresses T1, cell surface PSCA on PSCA-expressing cells (endogenous or recombinant) (Homo sapiens, UniProt O43653).
T1 construct: host or cells: PSCA-expressing cells (endogenous or recombinant)
The test can be described thus: PSCA human MAb screening by FACS. The format is binding. The protocol: FIGS. 9A and 9B. Screening for human PSCA antibodies by FACS. Antibody concentration from supernatants was determined by ELISA. 50 ul/well of (neat) was added to 96-well FACS plates and serially diluted. PSCA-expressing cells were added (endogenous or recombinant, 50,000 cells/well) and the mixture incubated at 4° C. for two hours. Following incubation, the cells were washed with FACS Buffer and further incubated with 100 ul of detection antibody (anti-hIgG-PE) for 45 minutes at 4° C. At the end of incubation, the cells were washed with FACS Buffer, fixed with formaldehyde and analyzed using FACScan. Data were analyzed using CellQuest Pro software. Solid histograms represent data from negative control cells and open histograms indicate data from PSCA-positive cells.
Primary hybridoma screening for MAbs to PSCA was performed by FACS. The protocol was as follows: 50 ul/well of hybridoma supernatant (neat) or purified antibodies (in serial dilutions) were added to 96-well FACS plates and mixed with PSCA-expressing cells (endogenous or recombinant, 50,000 cells/well). The mixture was incubated at 4° C. for two hours. At the end of incubation, the cells were washed with FACS Buffer and incubated with 100 ul of detection antibody (anti-hIgG-PE) for 45 minutes at 4° C. At the end of incubation, the cells were washed with FACS Buffer, fixed with Formaldehyde and analyzed using FACScan. Data were analyzed using CellQuest Pro software. Filled histograms indicate data from negative control cells, and open histograms represent data from PSCA-positive cells (FIG. 9).
Positive hybridomas identified from primary screens were transferred to 24-well plates and supernatants collected for confirmatory screens. Confirmatory screens included FACs analysis on B300.19-PSCA/300.19-neo, Rat1-PSCA/Rat1-neo, PC3-PSCA/neo, SW780 (bladder cancer cell line), LAPC9AI (prostate cancer cell line), HPAC (pancreatic cancer cell line), and ELISA assay using Tag5-PSCA, GST-PSCA, GST-PSCA N-term, Med. C-Term, and pET-PSCA.
Background: In flow cytometry, cells or beads pass a laser one at a time.

Test [2] has as its system SW780 human bladder tumors. The test can be described thus: Subcutaneous SW780 bladder tumor xenograft. The format is in vivo, ICR SCID mice. The following applies: 250 mg/mouse i.p. two times a week, 7 doses, from day of injection; t test. Here is the method:
FIG. 27. Human PSCA MAbs Inhibit the Growth of SW780 Bladder Tumors in SCID Mice. Human SW780 bladder cancer cells (2×10^6/mouse) were injected subcutaneously into immunodeficient ICR SCID mice (Taconic Farm, Germantown, N.Y.). The mice were randomized into groups (n=10 animals/group) and treatment with the indicated human PSCA MAb initiated the same day. Antibodies (250 mg/mouse) were delivered intraperitoneally two times a week for a total of 7 doses. […] Statistical analyses were performed using at test (two-sided, α=0.05).
In another experiment, Human SW780 bladder cancer cells (2×10^6/mouse) were injected subcutaneously into immunodeficient ICR SCID mice (Taconic Farm, Germantown, N.Y.). The mice were randomized into groups (n=10 animals/group) and treatment with the indicated human PSCA MAb initiated the same day. Antibodies (250 mg/mouse) were delivered intraperitoneally two times a week for a total of 7 doses. […] Statistical analyses were performed using at test (two-sided, α=0.05) (FIG. 27).

Test [3] deals with B300.19-PSCA expressing cells. The test can be described thus: Complement mediated cytotoxicity. Type of test: cell-based. The settings on record: 0-50 μg/ml antibody, rabbit complement serum, 2 hr 37° C., Alamar Blue. The protocol: (§1) FIG. 14. Complement mediated cytotoxicity of PSCA Mabs. PSCA antibodies (0-50 μg/ml) were diluted with RHB buffer (RPMI 1640, Gibco Life Technologies, 20 mM HEPES). B300.19-PSCA expressing cells were washed in RHB buffer and resuspended at a density of 10^6 cells/ml. In a typical assay, 50 μl of PSCA antibody, 50 μl of diluted rabbit complement serum (Cedarlane, Ontario, Can), and 50 μl of a cell suspension were added together into a flat-bottom tissue culture 96-well plate. The mixture was incubated for 2 hr. at 37° C. in a 5% CO2 incubator to facilitate complement-mediated cell lysis. […] The fluorescence in each well was read using a 96-well fluorometer with excitation at 530 nm and emission at 590 nm.
as §1, with “PSCA” for “FIG. 14. Complement mediated cytotoxicity of PSCA”, “antibodies were evaluated to determine their ability to mediate immune dependent cytotoxicity.” for “Mabs.”, “plate.” for “plate. The mixture was incubated for 2 hr. at 37° C. in a 5% CO2 incubator to facilitate complement-mediated cell lysis.”
In general terms: Resazurin is reduced to fluorescent resorufin, in cell work by metabolically active cells.

Test [4] relates to LAPC-9AI androgen-independent human prostate cancer xenografts. The test can be described thus: Established subcutaneous LAPC-9AI prostate cancer xenograft. Type of test: in vivo, SCID mice. The following applies: treatment from tumor volume 50 mm3, i.p. twice weekly, 5 doses until day 14; p<0.05. Here is the method:
FIG. 19. PSCA MAb Ha1-5.99 Inhibits the Growth of Established Prostate Cancer Xenografts in SCID mice. LAPC-9AI tumor cells (2.0×10^6 cells) were injected subcutaneously into male SCID mice. When tumor volume reached 50 mm3, the mice were randomized into groups (n=10 in each group) and treatment initiated intraperitoneally (i.p.) with HA1-5.99.1 or isotype MAb control as indicated. Animals were treated twice weekly for a total of 5 doses until study day 14. Tumor growth was monitored using caliper measurements every 3 to 4 days as indicated.
In another experiment, LAPC-9AI tumor cells (2.0×10^6 cells) were injected subcutaneously into male SCID mice. When tumor volume reached 50 mm3, the mice were randomized into groups (n=10 in each group) and treatment initiated intraperitoneally (i.p.) with HA1-5.99.1 or isotype MAb control as indicated Animals were treated twice weekly for a total of 5 doses until study day 14. Tumor growth was monitored using caliper measurements every 3 to 4 days as indicated. […] (FIG. 19).

B1: Ha1-4.37: fully human gamma 1 anti-PSCA monoclonal antibody from XenoMouse; ATCC PTA-6702; sequences FIG. 2P-2Q (antibody, V domains shown)
VH: CPGALQESGPGLVRPSQTLSLTCTVSGGSISSGGTYYWIWIRQHPGKGLEWIGYIYYSGSTYYNPSLKSRVTISVDTSKNQFSLKLSSVTAADTAVYYCARDGITMVRGISGGMDVWGQGTTVTVSSASTKGPSVKGPSVF
VL: ASVGDRVTITCRASQSISSHLNWYQQKPGKAPKLLIYAASSLQSGVPSRFSGSGSGTDFTLSISSLQPEDFATYFCQQSYSIPRTFGQGTKVEITRTVAAPSVFIFPPSDEQLKSGTASVVCLLNNFYPREAKVQWKVDNALQSG
Turning to B1, the “react and bind with cell surface or immobilized PSCA” value in test [1] was “react and bind with cell surface or immobilized PSCA”. In test [2], the “inhibition of subcutaneous tumor growth” value is on record as “significantly inhibited the growth”.

B2: Ha1-5.99: fully human gamma 2 anti-PSCA monoclonal antibody from XenoMouse; ATCC PTA-6703; sequences FIG. 2E-2F (antibody, V domains shown)
VH: QVHLQQWGAGLLKPSETLSLTCAVYGGSFSGYYWSWIRQPPGKGLEWIGEINHSGSTSYKPSLKSRVTVSVDTSKNQFSLKLSYVTAADTAVYYCARDRGDYGDFLFDYWGQGTLVTVSSASTKGPSVFPLAPSSKST
VL: SPGERATLSCRASQSIGSTYLAWYQQKPGQAPRLLIYGASSRATGIPERFSGSGSGTDFTLTISGLEPEDFAVFYCQQCGSSPPTFGQGTKVEIKRTVAAPSVFIFPPSDEQLKSGTASVVCLLNNFYPREAKVQWKVDNA
Take B2: the “complement dependent lysis of target cells” value in test [3] is on record as “able to mediate complement dependent lysis”. The “react and bind with cell surface or immobilized PSCA” value in test [1] is “react and bind with cell surface or immobilized PSCA”. Also, the “binding to endogenous cell surface PSCA” value in test [1] (PSCA expressed in prostate cancer xenograft cells) is on record as “bind endogenous cell surface PSCA”. The “inhibition of growth of established subcutaneous tumors” value in test [4] is “significantly inhibited the growth”. For the same molecule, the “inhibition of subcutaneous tumor growth” value in test [2] is reported as “significantly inhibited the growth”.
